One block for each molecule: values may come before it.
Biological target: thrombin
Assay: cell-based or functional assay
Conditions: for Antithrombin Units per mg Oil Body Proteins: scale: antithrombin units per mg oil body protein; for Thrombin Units Per Assay: scale: thrombin units per assay

- Antithrombin Units per mg Oil Body Proteins: 0.55
- Thrombin Units Per Assay: 0.0065
Molecule: hirudin released from the oleosin/hirudin fusion by Factor Xa

- Antithrombin Units per mg Oil Body Proteins: < 0.001
- Thrombin Units Per Assay: 0.14
B1: Arabidopsis oleosin/hirudin fusion (protein, part only; not given: Factor Xa cleavage junction, Hirudo medicinalis, not shown: small tags and cut ends)
chain, part: MADTARGTHHDIIGRDQYPMMGRDRDQYQMSGRGSDYSKSRQIAKAATAVTAGGSLLVLSSLTLVGTVIALTVATPLLVIFSPILVPALITVALLITGFLSSGGFGIAAITVFSWIYKYATGEHPQGSDKLDSARMKLGSKAQDLKDRAQYYGQQHTGGEHDRDRTRGGQHTT

Reference: US6750046
